Reference: PMC11758000

Target: FGFR3-TACC3 RT112 (fibroblast growth factor receptor 3 fused with transforming acidic coiled-coil-containing protein 3), 5F1Y variant, in SMA lipid particles
Assay: mass photometry; RT112-SMALPs at 500 nM incubated on ice for 30 min with FGF1 at a 10x molar ratio, drop dilution into 50 mM HEPES, 500 mM NaCl, 0.5% v/v glycerol, 1 mM TCEP, pH 7.9, room temperature; compared with ligand-free RT112

“FGFR3-TACC3 RT112 (fibroblast growth factor receptor 3 fused with transforming acidic coiled-coil-containing protein 3), 5F1Y variant, in SMA lipid particles” showed a stoichiometry N of 2.
